# Experimental data reported in publication PMC6623464, “HTLV-1 basic leucine zipper factor protects cells from oxidative stress by upregulating expression of Heme Oxygenase I”.
# B1: T-MARE probe (dsDNA)
# DNA 1: AGCTCGGAATTGCTGACTCAGCATTACTCTCG
# DNA 2: CGAGAGTAATGCTGAGTCAGCAATTCCGAGCT
# B2: MARE MT probe (dsDNA)
# DNA 1: AGCTCGGAATCAATGACTCATTGTTACTCTCG
# DNA 2: CGAGAGTAACAATGAGTCATTGATTCCGAGCT
# B3: HMOX1 Distal 1 MARE probe (dsDNA)
# DNA 1: GTGTTTTTCCTGCTGAGTCACGGTCCCGAGGT
# DNA 2: ACCTCGGGACCGTGACTCAGCAGGAAAAACAC
# B4: HMOX1 Distal 2 MARE probe (dsDNA)
# DNA 1: GATCTGTTTTCGCTGAGTCACGGTCCCGGTGT
# DNA 2: ACACCGGGACCGTGACTCAGCGAAAACAGATC
# B5: HMOX1 Distal 3 MARE probe (dsDNA)
# DNA 1: TGTCTGTTTTCGCTGAGTCACGGTCTAGAGAT
# DNA 2: ATCTCTAGACCGTGACTCAGCGAAAACAGACA
# B6: HMOX1 proximal MARE probe (dsDNA)
# DNA 1: TGCTAGATTTTGCTGAGTCACCAGTGCCTCCT
# DNA 2: AGGAGGCACTGGTGACTCAGCAAAATCTAGCA
# What was measured:
# [1] = biological target: T1, MafG-His (UniProt O15525 1-162); assay: EMSA; MafG 0.5 or 1 nM; EMSA: 0.5x TM (100 mM Tris-HCl pH 7.5, 20 mM MgSO4 as printed), 1 mM DTT, 1 ug BSA, 100 ng poly(dA)-poly(dT), 2-10 fmol probe, 20 C, 1 h; proteins stored in 50; settings: protein: recombinant; tags: 6xHis (pRSET A); chain copies: 2; label: 32P end label
# [2] = biological target: GST-HBZ (HTLV-1, UniProt P0C746-2 1-206); assay: EMSA; HBZ 50 nM, no MafG; EMSA: 0.5x TM (100 mM Tris-HCl pH 7.5, 20 mM MgSO4 as printed), 1 mM DTT, 1 ug BSA, 100 ng poly(dA)-poly(dT), 2-10 fmol probe, 20 C, 1 h; proteins stored in 50; settings: protein: recombinant; tags: GST; chain copies: 2; label: 32P end label
# GST-HBZ, sequence (P0C746 8-209, tags left off): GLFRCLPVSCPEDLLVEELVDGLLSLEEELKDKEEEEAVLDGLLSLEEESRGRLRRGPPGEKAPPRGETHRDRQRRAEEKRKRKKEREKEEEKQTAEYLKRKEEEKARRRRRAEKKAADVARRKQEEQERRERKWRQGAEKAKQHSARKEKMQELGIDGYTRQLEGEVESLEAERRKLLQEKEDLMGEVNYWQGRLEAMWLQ
# [3] = biological target: GST-HBZ-AD (HTLV-1, UniProt P0C746-2 1-57); assay: EMSA; HBZ-AD 50 nM, no MafG; EMSA: 0.5x TM (100 mM Tris-HCl pH 7.5, 20 mM MgSO4 as printed), 1 mM DTT, 1 ug BSA, 100 ng poly(dA)-poly(dT), 2-10 fmol probe, 20 C, 1 h; proteins stored in 50; settings: protein: recombinant; tags: GST; label: 32P end label
# GST-HBZ-AD, sequence (P0C746 8-60, tags left off): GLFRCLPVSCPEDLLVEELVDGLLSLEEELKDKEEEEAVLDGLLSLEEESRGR
# [4] = biological target: T2, MafG-His;T7-HBZ-bZIP (human?;HTLV-1, UniProt O15525;P0C746-2 1-162;120-206, |); assay: EMSA; increased over MafG alone; MafG 0.5 nM; EMSA: 0.5x TM (100 mM Tris-HCl pH 7.5, 20 mM MgSO4 as printed), 1 mM DTT, 1 ug BSA, 100 ng poly(dA)-poly(dT), 2-10 fmol probe, 20 C, 1 h; proteins stored in 50; settings: protein: recombinant;recombinant; tags: 6xHis (pRSET A);T7; copies: 1;1; label: 32P end label
# [5] = biological target: T1, MafG-His; assay: EMSA; EMSA: 0.5x TM (100 mM Tris-HCl pH 7.5, 20 mM MgSO4 as printed), 1 mM DTT, 1 ug BSA, 100 ng poly(dA)-poly(dT), 2-10 fmol probe, 20 C, 1 h; proteins stored in 50; settings: protein: recombinant; tags: 6xHis (pRSET A); chain copies: 2; label: 32P end label
# [6] = biological target: T2, MafG-His;T7-HBZ-bZIP; assay: EMSA; increased over MafG alone; EMSA: 0.5x TM (100 mM Tris-HCl pH 7.5, 20 mM MgSO4 as printed), 1 mM DTT, 1 ug BSA, 100 ng poly(dA)-poly(dT), 2-10 fmol probe, 20 C, 1 h; proteins stored in 50; settings: protein: recombinant;recombinant; tags: 6xHis (pRSET A);T7; copies: 1;1; label: 32P end label
# [7] = biological target: T2, MafG-His;T7-HBZ-bZIP; assay: EMSA; most pronounced increase over MafG alone; EMSA: 0.5x TM (100 mM Tris-HCl pH 7.5, 20 mM MgSO4 as printed), 1 mM DTT, 1 ug BSA, 100 ng poly(dA)-poly(dT), 2-10 fmol probe, 20 C, 1 h; proteins stored in 50; settings: protein: recombinant;recombinant; tags: 6xHis (pRSET A);T7; copies: 1;1; label: 32P end label
# [8] = biological target: T1, MafG-His; assay: EMSA; MafG 0.5 nM; higher apparent affinity than distal MAREs; EMSA: 0.5x TM (100 mM Tris-HCl pH 7.5, 20 mM MgSO4 as printed), 1 mM DTT, 1 ug BSA, 100 ng poly(dA)-poly(dT), 2-10 fmol probe, 20 C, 1 h; proteins stored in 50; settings: protein: recombinant; tags: 6xHis (pRSET A); chain copies: 2; label: 32P end label
# [9] = biological target: T2, MafG-His;T7-HBZ-bZIP; assay: EMSA; HBZ-bZIP diminished the MafG complex; authors conclude heterodimer does not bind; EMSA: 0.5x TM (100 mM Tris-HCl pH 7.5, 20 mM MgSO4 as printed), 1 mM DTT, 1 ug BSA, 100 ng poly(dA)-poly(dT), 2-10 fmol probe, 20 C, 1 h; proteins stored in 50; settings: protein: recombinant;recombinant; tags: 6xHis (pRSET A);T7; copies: 1;1; label: 32P end label
binder,measurement,setting,value
B1,binding result,[1],binds
same,binding result,[2],no binding
same,binding result,[3],no binding
same,binding result,[4],binds
B2,binding result,[5],no binding
B3,binding result,[6],binds
B4,binding result,[6],binds
B5,binding result,[7],binds
B6,binding result,[8],binds
same,binding result,[9],no binding
